Results reported in paper PMC5039624 (Scientific Reports, 2016).

B1: unnamed (parent)
chain 1: SECGKFMWKCKNSNDCCKDLVCSSRWKWCVLASPF
chain 2: RGLSDLGGRVRNIGDVMEHPLVELGVSYAALLSVIVVVVEYTMQLSGEYLVRLYLVDLILVIILWADYAYRAYKSGDPAGYVKKTLYEIPALVPAGLLALIEGHLAGLGLFRLVRLLRFLRILLIISRGSKFLSAIADAADK

Variants of: B1
Test: pull-down
Parameters: reference not given here
Conditions: with partner chain of the complex shown; His6-tagged VSDK micelles immobilized on nickel-NTA beads; read off a plot
chain 2 T42A was tested, and the screen value was 6%. chain 2 Y41A showed a screen value of 8%. In the case of chain 2 Y41A T42A Q44A, the screen value is reported as 51%. In the case of chain 2 Y41A T42A, the screen value is reported as 19%. With chain 2 R115A the screen value was 7%. For chain 2 W65A, the screen value was -7%. Variant chain 2 S46A has a screen value of 11%.
